In patent US12144869B2, “Anti-ROR1 antibody conjugates, compositions comprising anti ROR1 antibody conjugates, and methods of making and using anti-ROR1 antibody conjugates” (Sutro Biopharma, Inc., priority 2022, dated 2024):
Substitutions are numbered along the chain they refer to.

B1: SRP2196-B02 (antibody, V domains shown)
VH: EVQLVESGGGLVQPGGSLRLSCAASGFNITQYYIHWVRQAPGKGLEWVGYISPNSGQTYDADSVKGRFTISADTSKNTAYLQMNSLRAEDTAVYYCARDSRRYVRSWDYWGQGTLVTVSS
VL: QAVVTQESALTTSPGETVTLTCRSSTGAVTTSNYANWVQEKPDHLFTGLIGGTNKRAPGVPARFSGSLIGDKAALTITGAQTEDEAIYFCALWYSNLWVFGGGTKLTVL
B2: SRP2196-A10 (antibody, V domains shown)
VH: B1 VH with Q31G, Q57A, Y59H, D60Y, T74I, Y94H
VL: B1 VL
B3: SRP2196-A08 (antibody, V domains shown)
VH: B1 VH with Q31G, Q57S, D60K, K76R
VL: B1 VL
B4: SRP2196-A06 (antibody, V domains shown)
VH: B1 VH with Q31G, Y50Q, Q57S, Y59H, D60Q, E89G, S106G
VL: B1 VL
B5: SRP2196-B04 (antibody, V domains shown)
VH: B1 VH with Q31E, Q57A, D60Q, S106G
VL: B1 VL
B6: SRP2196-B05 (antibody, V domains shown)
VH: B1 VH with Q31G, Y50Q, Q57A, D60H, S106G
VL: B1 VL
B7: SRP2196-B08 (antibody, V domains shown)
VH: B1 VH with Q31G, Y50Q, Q57Y, D60L, S106G
VL: B1 VL
B8: SRP2196-A11 (antibody, V domains shown)
VH: B1 VH with Q31G, Y50Q, Q57T, S106G
VL: B1 VL
B9: SRP2196-A05 (antibody, V domains shown)
VH: B1 VH with Q31N, Q57A, D60Q
VL: B1 VL
B10: SRP2196-A02 (antibody, V domains shown)
VH: B1 VH with Q31G, Y50Q, Q57A, Y59H, S106G
VL: B1 VL
B11: SRP2196-B06 (antibody, V domains shown)
VH: B1 VH with Q31G, Y50Q, Q57S, D60S, R105L
VL: B1 VL
B12: SRP2196-B10 (antibody, V domains shown)
VH: B1 VH with Q31G, Y50S, S52T, N54L, Q57A, Y59S, D60K, V104I
VL: B1 VL
B13: SRP2196-A01 (antibody, V domains shown)
VH: B1 VH with Q31G, Y50Q, Q57Y, D60Y, S106G
VL: B1 VL
B14: SRP2196-C01 (antibody, V domains shown)
VH: B1 VH with T30I, Q31G, Y50S, S52T, N54L, Q57A, Y59S, D60K, V104I
VL: B1 VL
B15: 1944-A07 HC w/hUCHT1 LC3: HC of lead antibody 1944-A07 co-expressed with the LC of anti-CD3 antibody "hUCHT1-LC3" (antibody, V domains shown)
VH: B1 VH with Q31G, Q57S, D60Y, S106P, W107F
VL: DIQMTQSPSTLSASVGDRVTITCRASQDIRNYLNWYQQKPGKAPKLLIYYTSRLHSGVPSRFSGSGSGTEYTLTISSLQPDDFATYYCQQGNTLPWTFGGGTKVEIK
B16: 1944-A07 HC w/hSP34 LC3: HC of lead antibody 1944-A07 co-expressed with the LC of anti-CD3 antibody "hSP34-LC3" (antibody, V domains shown)
VH: B1 VH with Q31G, Q57S, D60Y, S106P, W107F
VL: QTVVTQEPSLTVSPGGTVTLTCGSSTGAVTSGYYPNWFQQKPGQAPRGLIGGTKFLAPGTPARFSGSLLGGKAALTLSGVQPEDEAEYYCALWYSNRWVFGGGTQLTVTG
B17: 1944-A07 HC w/hOKT3 LC1: HC of lead antibody 1944-A07 co-expressed with the LC of anti-CD3 antibody "hOKT3-LC1" (antibody, V domains shown)
VH: B1 VH with Q31G, Q57S, D60Y, S106P, W107F
VL: DIQMTQSPSSLSASVGDRVTITCSASSSVSYMNWYQQKPGKAPKRLIYDTSKLASGVPSRFSGSGSGTEYTLTISSLQPEDFATYYCQQWSSNPFTFGQGTKLEIK
B18: SRP1944-A07 w SP34 LC3: "initial antibody leads constructed with an SP34 light chain" (antibody, V domains shown)
VH: B1 VH with Q31G, Q57S, D60Y, S106P, W107F
VL: B16 VL
B19: SRP2196-A04 (antibody, V domains shown)
VH: EVQLVESGGGLVQPGGSLRLSCAASGFNISPYYIHWVRQAPGKGLEWVGQIYPISGHTYQADSVKGRFTISADTSKNTAYLQMNSLRAEDTAVYYCARESRRYVGPFGYWGQGTLVTVSS
VL: B1 VL

Test system: not listed separately
Assay: Differential scanning fluorimetry (protein thermal shift; TM1/TM2)
Type: physicochemical
Settings: Table 11; melting temperature of the Fab domain
Description: A protein thermal shift assay was carried out by mixing the protein to be assayed with an environmentally sensitive dye (SYPRO Orange, Life Technologies Cat #S-6650) in a phosphate buffered solution (PBS), and monitoring the fluorescence of the mixture in real time as it underwent controlled thermal denaturation. Protein solutions between 0.2-2 mg/mL were mixed at a 1-1 volumetric ratio with a 1-500 PBS-diluted solution of SYPRO Orange (SYPRO Orange stock dye is 5000× in DMSO). 10 μL aliquots of the protein-dye mixture were dispensed in quadruplicate in a 384-well microplate (Bio-Rad Cat #MSP-3852), and the plate was sealed with an optically clear sealing film (Bio-Rad Cat #MSB-1001) and placed in a 384-well plate real-time thermocycler (Bio-Rad CFX384 Real Time System). The protein-dye mixture was heated from […], at increments of 0.1° C. per cycle (˜1.5° C. per minute), allowing 3 seconds of equilibration at each temperature before taking a fluorescence measurement. At the end of the experiment, the transition melting temperatures (TM1 and TM2) were determined using the Bio-Rad CFX manager software. TM1 represents the melting temperature of the Fc domain. TM2 represents the melting temperature of the Fab domain.
For the thermal stability of an antibody, the first melting peak (Tm1) coincides with the unfolding of the CH2 domain (FC stability), while the second melting peak (Tm2) occurs upon unfolding of the Fab domain.

Going from B1 to B2, the “TM2 (° C.)” value falls from 69 °C to 68 °C.

Going from B3 to B4, the “TM2 (° C.)” value rises from 69 °C to 70 °C.

Going from B5 to B6, the “TM2 (° C.)” value rises from 72 °C to 73 °C.

Compared with B7, B8 is lower in “TM2 (° C.)” value: 75 °C for the first, 73 °C for the second.

B9 and B10 are the same in “TM2 (° C.)” value: 71 °C for the first, 71 °C for the second.

B11 and B12 are the same in “TM2 (° C.)” value: 70 °C for the first, 70 °C for the second.

First: B13
Second: B14
The “TM2 (° C.)” value of the first is higher: 74 °C for the first, 70 °C for the second.

Target: T1, human ROR1-Fz (Homo sapiens, UniProt Q01973)
T1 construct: Frizzled (Fz, residues 165-305); His6 (C); purchased Acro Biosystems; host or cells: HEK293
T1 sequence (Q01973 165-305): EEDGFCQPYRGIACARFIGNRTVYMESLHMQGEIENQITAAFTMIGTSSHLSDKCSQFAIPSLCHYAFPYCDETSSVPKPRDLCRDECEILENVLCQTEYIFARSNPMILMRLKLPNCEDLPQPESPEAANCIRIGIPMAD
Assay: Biacore off-rate and kinetic analysis, ROR1-Fz
Type: binding
Settings: Table 7; sample ROR1 Fz; 1944-A07 HC with different LCs
Description: Anti-Fc polyclonal antibodies were immobilized onto a CMS chip (GE Life Sciences) using amine coupling chemistry (from Amine Coupling Kit, GE Life Sciences). The immobilization steps were carried out at a flow rate of 25 μL/min in 1×HBS-EP+buffer (GE Life Sciences; 10× Stock diluted before use). The sensor surfaces were activated for 7 min with a mixture of NHS (0.05 M) and EDC (0.2 M). The Anti-Fc antibodies were injected over all 4 flow cells at a concentration of 25 ug/ml in 10 mM sodium acetate, pH 4.5, for 7 min. Ethanolamine (1 M, pH 8.5) was injected for 7 min to block any remaining activated groups. An average of 12,000 response units (RU) of capture antibody was immobilized on each flow cell.
Off-rate and kinetic binding experiments were performed at 25° C. using 1×HBS-EP+buffer. Test and control antibodies were injected over the anti-Fc surface at concentrations of 5-10 μg/mL for 12 seconds at a flow rate of 10 μL/min on flow cells 2, 3 and 4, followed by a buffer wash for 30 seconds at the same flow rate. Kinetic characterization of antibody samples was carried out with a range of antigen concentrations from 1-100 nM and 1 injection of 0 nM antigen (for example, 100, 50, 25, 6.25, 1.56 and 0 nM). After capturing ligand (antibody) on the anti-Fc surface, the analyte (hROR1, Fz or Kr domains, Acro Biosystems, Delaware) was bound for 180 seconds, followed by a 600 second dissociation phase at a flow rate of 50 μL/min. Between each ligand capture and analyte binding cycle, regeneration was carried out using 2 injections of 10 mM Glycine pH 2.0 for 30 seconds at 30 μL/min, followed by a 30 second buffer wash step.
The data was fit with the Biacore T200 Evaluation software, using a 1-1 Langmuir binding model. KD (affinity, nM) was determined as a ratio of the kinetic rate constants calculated from the fits of the association and dissociation phases.
For anti-CD3-LC-containing IgGs that had detectable ROR1-binding in ELISA (1944-A07 and 1987-C05 variants), those antibodies were further tested for binding by surface plasmon resonance (SPR). Binding kinetics were assessed to the ROR1-frizzled domain (hROR1-Fz) or the ROR1-extracellular domain (hROR1) for 1944-A07 and 1987-C05 variants, respectively. Briefly, anti-ROR1 antibodies were captured via anti-human Fc polyclonal antibodies immobilized to a CM5 chip, and ROR1 recombinant proteins were flowed across the surface to assess binding kinetics. hROR1 or hROR1-Fz domain (Acro Biosystems, Delaware) binding was tested at 100, 50, 25, 6.25, 1.5625 nM. The data was fit with the Biacore™ T200 Evaluation software, using a 1-1 Langmuir binding model. KD (affinity, nM) was determined as a ratio of the kinetic rate constants calculated from the fits of the association and dissociation phases.

Going from B15 to B16, the ka1 falls from 1.85e+06 M⁻¹ s⁻¹ to 360000 M⁻¹ s⁻¹ (5.1-fold).

Going from B15 to B16, the kd1 falls from 0.119 s⁻¹ to 0.00228 s⁻¹ (52-fold).

With B17 the KD was “Not detected”.

Same assay, conditions: Table 11; SP34 light chain

B1 and B2 are within 1.5-fold of each other in “Biacore human ROR1-Fz ka” value: 163000 M⁻¹ s⁻¹ for the first, 172000 M⁻¹ s⁻¹ for the second.

Compared with B18, B3 is 3.3-fold lower in “Biacore human ROR1-Fz ka” value: 597000 M⁻¹ s⁻¹ for the first, 183000 M⁻¹ s⁻¹ for the second.

B4 and B5 are within 1.5-fold of each other in “Biacore human ROR1-Fz ka” value: 180000 M⁻¹ s⁻¹ for the first, 127000 M⁻¹ s⁻¹ for the second.

B7 and B8 are within 1.5-fold of each other in “Biacore human ROR1-Fz ka” value: 156000 M⁻¹ s⁻¹ for the first, 191000 M⁻¹ s⁻¹ for the second.

B9 and B19 are within 1.5-fold of each other in “Biacore human ROR1-Fz ka” value: 175000 M⁻¹ s⁻¹ for the first, 139000 M⁻¹ s⁻¹ for the second.

B11 and B12 are within 1.5-fold of each other in “Biacore human ROR1-Fz ka” value: 142000 M⁻¹ s⁻¹ for the first, 128000 M⁻¹ s⁻¹ for the second.

For B14, the “Biacore human ROR1-Fz ka” value was 125000 M⁻¹ s⁻¹.

Compared with B1, B2 is 2.1-fold higher in “Biacore human ROR1-Fz kd” value: 0.000227 s⁻¹ for the first, 0.000479 s⁻¹ for the second.

Going from B18 to B3, the “Biacore human ROR1-Fz kd” value falls from 0.0085 s⁻¹ to 0.00078 s⁻¹ (11-fold).

First: B4
Second: B5
The “Biacore human ROR1-Fz kd” value of the first is 2-fold higher: 0.00069 s⁻¹ for the first, 0.000352 s⁻¹ for the second.

Going from B7 to B8, the “Biacore human ROR1-Fz kd” value rises from 0.000488 s⁻¹ to 0.000792 s⁻¹ (1.6-fold).

First: B9
Second: B19
The “Biacore human ROR1-Fz kd” value of the first is 2-fold higher: 0.000682 s⁻¹ for the first, 0.000343 s⁻¹ for the second.

B11 and B12 are within 1.5-fold of each other in “Biacore human ROR1-Fz kd” value: 0.000423 s⁻¹ for the first, 0.000334 s⁻¹ for the second.

For B14, the “Biacore human ROR1-Fz kd” value was 0.000457 s⁻¹.

Same assay, conditions: hROR1-Fz; 1944-A07 variants

With B15 the “KD (SPR binding kinetics)” value was “binding was not detected”.
